According to the supplement of paper PMC9170038:

System: MS2 coat protein
Assay: apparent KD of MS2 coat protein; designed switch direction (-1 OFF switch, 1 ON switch): -1; higher = weaker reporter binding
In short: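 On Illumina chips, designed RNA switches with common flanks were made by stalled E. coli RNA polymerase. Titrations with SNAP-549-labelled MS2 coat protein, doubling from 0.7 or 1.5 nM to 3 µM, were done with no input, with 200 uM small-molecule ligand, or with an oligonucleotide input. Apparent KD is the median per design over clusters, from curve fits of normalised cluster fluorescence.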

[1] = Eterna round: R95, input ligand: FMN 200 uM
[2] = Eterna round: R95, input ligand: microRNA oligo, concentration not stated
[3] = Eterna round: R95, input ligand: none
[4] = input ligand: microRNA oligo, concentration not stated

Sequence	apparent KD of MS2 coat protein [1]	apparent KD of MS2 coat protein [2]	apparent KD of MS2 coat protein [3]	apparent KD of MS2 coat protein (input ligand: FMN 200 uM)	apparent KD of MS2 coat protein (input ligand: none)	apparent KD of MS2 coat protein [4]
AAGAAACAUGAGGAUCACCCAUGUGAGGAUAUAGAAAAGAAAGAAAGAAAGAAAGAAACUAGAAGGCACAAAGA [It's All Mine] (puzzle: Exclusion 1)	24.6 nM	39.2 nM	26.1 nM			
AAGAAACAUGAGGAUCACCCAUGUGAGGAUAUGAAAAAUAAAAUAAAAGAAAUAAUAAUCAGAAGGCACAAAGG [Mat - Mod of Hog D8] (puzzle: Exclusion 1)	44.5 nM	36.1 nM	30.5 nM			
AAGAAACAUGAGGAUCACCCAUGUGAGGAUAUGACAAAGAAAAGAAAAGAAAGAAGAUUCAGAAGGCACAAAGG [salish99-ex1_r3_036] (puzzle: Exclusion 1)	90.5 nM	53.6 nM	70.4 nM			
AAGAAACAUGAGGAUCACCCAUGUGAGGAUAUGAGAAAGAAAAGAAAAGAAAGAAGACUCAGAAGGCACAAAGG [salish99-ex1_r3_040] (puzzle: Exclusion 1)	152 nM	54.7 nM	120 nM			
AAGAAACAUGAGGAUCACCCAUGUGAGGAUAUGAGGAAGAAAAGAAAAGAAAGAAGAAUCAGAAGGCACAAAGG [salish99-ex1_r3_049] (puzzle: Exclusion 1)	56.3 nM	36.5 nM	43.6 nM			
AAGAAACAUGAGGAUCACCCAUGUGAGGAUAUGAUGAAGAAAAGAAAAGAAAGAAGAGUCAGAAGGCACAAAGG [salish99-ex1_r3_064] (puzzle: Exclusion 1)	96 nM	55.9 nM	69.2 nM			
AAGAAACAUGAGGAUCACCCAUGUGAGGAUAUGGCCCGCCCGGCGUGAGCAAAAUAAAUCAGAAGGCACAAAGG [salish99_ex1_r4_009] (Eterna round: R97, puzzle: Exclusion 1)				41 nM	30.6 nM	
AAGAAACAUGAGGAUCACCCAUGUGAGGAUAUGGCCCGCCCGGCGUGAGCUAAAUAAAUCAGAAGGCACAAAGG [salish99_ex1_r4_010] (Eterna round: R97, puzzle: Exclusion 1)				24.6 nM	42.2 nM	
AAGAACAGAGGAUAUCGCGGGCAGCACAUGAGGAUCACCCAUGUGAUGCUCCGCGGGCCGCGAGAAGGCUGAAAUG [Dizabe] (puzzle: Exclusion 5)	14.2 nM	9.5 nM	12.9 nM			
AAGAAGAAGUAAGGAUAUGAAGAUCUGGUGGUGACAUGAGGAUCACCCAUGUGAAAACGAUAAGAUCAGAAGGUAUAAGAAGAA [AK ExNG2-3.2] (Eterna round: R96, puzzle: Exclusion NG 2)				86.8 nM	85.8 nM	48.4 nM
AAGAAGCGAGGAUAUACAGGCGGCGACAUGAGGAUCACCCAUGUGGUGGCCCACGCCGUGGUAGAAGGCGUUAAAG [Ordiceinri] (Eterna round: R97, puzzle: Exclusion 5)				228 nM	245 nM	
AAGACACAUGAGGAUCACCCAUGUGAGGAUAUGCGAUGCUAAGCGUAAGCUUAGUAUCGCAGAAGGCACAAAGG [Salishxclusion 4 - Jieux - Exclusion 1] (Eterna round: R97, puzzle: Exclusion 1)				76.9 nM	64 nM	
AAGACACAUGAGGAUCACCCAUGUGAGGAUAUUCGAUGCUGAGCGUAAGCUUAGUAUCGGAGAAGGCACAAAGG [Salishxclusion 7 - Jieux - Exclusion 1] (Eterna round: R97, puzzle: Exclusion 1)				119 nM	39.8 nM	
AAGAGCGUAGGAUAUACAUGAGGAUCACCCAUGUGAGGAGGGAAAAGGAGGUGUGGAAGUAGAAGGACGGAGUG [JR_Exclu3_Sub080] (puzzle: Exclusion 3)	31.8 nM	30.9 nM	36.5 nM			
AAGAGGAUCAAAGGAUAUGGAGCUGAAACGGCGCUAGAAGGUUGUCCAGUGUAACAUGAGGAUCACCCAUGUAGGGACCUCUAA [AK ExNG1-V2-3] (Eterna round: R96, puzzle: Exclusion NG 1)				100 nM	42.9 nM	57.5 nM
AAGAGGCGGACAGGAUAUGGGAAAUUGUAAAGACCAGAAGGGUCGGCGAAAAUACAUGAGGAUCACCCAUGUGAAUCAUGACCA [AK ExNG1-7] (Eterna round: R96, puzzle: Exclusion NG 1)				89.1 nM	42.5 nM	31.6 nM
AAGAGUGCAGGAUAUACGUGAGAAAGGAGGAUGAGAGAAGGACAUGAGGAUCACCCAUGUAGAAGGGCAGAGAG [JR_Exclu2_Sub060] (puzzle: Exclusion 2)	29.8 nM	36.4 nM	76.8 nM			
AAGCAACAUGAGGAUCACCCAUGUUAGGAUAUACGCAUGCAUGCAUGCAUGCAUGCAAGUAGAAGGAACCAUGC [Design #15] (Eterna round: R97, puzzle: Exclusion 1)				32 nM	49 nM	

Sequence	apparent KD of MS2 coat protein [1]	apparent KD of MS2 coat protein [2]	apparent KD of MS2 coat protein [3]	apparent KD of MS2 coat protein (input ligand: FMN 200 uM)	apparent KD of MS2 coat protein (input ligand: none)	apparent KD of MS2 coat protein [4]
AAGCUGUCAGGAUAUCGUUAAUUUAGUUGUUUGUAUUAGUUCGAGAAGGGACAUGAGGAUCACCCAUGUAUGUA [Ex4 #39] (Eterna round: R97, puzzle: Exclusion 4)				76.3 nM	34.2 nM	
AAGCUGUGAGGAUAUACAUGAGGAUCACCCAUGUUAAGGAAGUCGGGAUUAAUUUGGUGUAGAAGGCGCUUAUU [JR_Ex3_Sub019] (Eterna round: R97, puzzle: Exclusion 3)				46.1 nM	48.6 nM	
AAGGGACAUGAGGAUCACCCAUGUCAGGAUAUUAGUGUGAGUCACCUUGUGAAUACACUAAGAAGGGAUAGAAA [Eternabot (Original) Solution 38] (Eterna round: R97, puzzle: Exclusion 1)				69.8 nM	84.5 nM	
AAGGGUACUUUCGGAACGACAUGAGGAUCACCCAUGUAGACUGAGGAUAUCUACUACUAAGGACGGGAGAAGGCAGUGUAAUGU [Ex NG3 #76] (Eterna round: R96, puzzle: Exclusion NG 3)						11.8 nM
AAGGGUACUUUCGGAACGACAUGAGGAUCACCCAUGUAUACUGAGGAUAUCCACUACUAAGGACGGGAGAAGGCAGUGUACUGU [Ex NG3 #79] (Eterna round: R96, puzzle: Exclusion NG 3)				26.1 nM	16.6 nM	12.6 nM
AAGUACCGUCACGAUAGUGAUGGUACAACAAGCAGUGAAACAUGAGGAUCACCCAUGUCCUCAAUUGCUCGUCUUAU [Sensor 3 - 74] (puzzle: Sensor v3, turn-off variant 2)	39.9 nM	195 nM	37.5 nM			
AAGUACCGUCACGAUAGUGAUGGUACAACAGGCAAAUGUACAUGAGGAUCACCCAUGUCCUCUUUUGCUCGUCUUGU [Sensor 3 - 35] (puzzle: Sensor v3, turn-off variant 2)	94.2 nM	34 nM	114 nM			
AAGUACCGUCACGAUAGUGAUGGUACAGCAAGCAAGUGAACAUGAGGAUCACCCAUGUCCUCAAUUGCUCGUCUUAU [Sensor 3 - 72] (puzzle: Sensor v3, turn-off variant 2)	25 nM	55.5 nM	24.1 nM			
AAGUAUAGAGGAUAUAGUGAGUACUACAUGAGGAUCACCCAUGUUCUUCAAAGCGUAUUUCUAGAAGGCUGAUGAA [EX-5 Malc#15] (puzzle: Exclusion 5)	58.4 nM	38.8 nM	51.5 nM			
AAUAACAAGCAAGAUCCUAACAUGAGGAUCACCCAUGUGCUCGUCUUAUAAAGUACUAUCACGAAAGUGAUAGUACA [Sensor 3, v1 - 45] (puzzle: Sensor v3, turn-off variant 1)	470 nM	306 nM	420 nM			
AAUAACAAGCCGAUCCUCGACAUGAGGAUCACCCAUGUGCUCGUCUUGUAAAGUACUAUCACGAAAGUGAUAGUACA (Eterna round: R97, puzzle: Sensor, turn-off variant 1)				174 nM	419 nM	
AAUAACAAGUAGGAUCCUAACAUGAGGAUCACCCAUGUGCUCGUCUUAUAAAGUACUAUCACGAAAGUGAUAGUACA [Sensor 3, v1 - 53] (puzzle: Sensor v3, turn-off variant 1)	44.4 nM	64.2 nM	83.5 nM			
AAUAACAGAGGAUAUACUAUUUUAUGUGUUUAUUGUUUUAAACAUGAGGAUCACCCAUGUAGAAGGCUGAAUGA [JMF 59] (puzzle: Exclusion 2)		34.4 nM				
AAUAACAGAGGAUAUACUAUUUUAUGUGUUUAUUGUUUUAAACAUGAGGAUCACCCAUGUAGAAGGCUGAGUAA [JMF 31] (puzzle: Exclusion 2)		37.4 nM				
AAUAACAGAGGAUAUACUAUUUUAUGUGUUUGUUAUUUUAAACAUGAGGAUCACCCAUGUAGAAGGCUGAAUAA [JMF 14] (puzzle: Exclusion 2)		19.1 nM				
AAUAACAGAGGAUAUACUAUUUUAUGUGUUUGUUAUUUUGAACAUGAGGAUCACCCAUGUAGAAGGCUGAUUAA [JMF 49] (Eterna round: R96, puzzle: Exclusion 2)				45.6 nM	44.1 nM	35.2 nM
AAUAACAGAGGAUAUACUAUUUUAUGUGUUUGUUAUUUUGAACAUGAGGAUCACCCAUGUAGAAGGCUGAUUAA [JMF 49] (puzzle: Exclusion 2)		39.4 nM				
